This passage reports IC50 results from patent US20040258659A1.

This assay deals with CCR5, P51681. Description: competitive radioligand binding on whole CHO-CCR5 cells at 4 C, 12 pM [125I]MIP-1α tracer. The conditions noted are these: remark: other sources report otherwise.
CCR5, P51681, sequence (P51681 whole entry): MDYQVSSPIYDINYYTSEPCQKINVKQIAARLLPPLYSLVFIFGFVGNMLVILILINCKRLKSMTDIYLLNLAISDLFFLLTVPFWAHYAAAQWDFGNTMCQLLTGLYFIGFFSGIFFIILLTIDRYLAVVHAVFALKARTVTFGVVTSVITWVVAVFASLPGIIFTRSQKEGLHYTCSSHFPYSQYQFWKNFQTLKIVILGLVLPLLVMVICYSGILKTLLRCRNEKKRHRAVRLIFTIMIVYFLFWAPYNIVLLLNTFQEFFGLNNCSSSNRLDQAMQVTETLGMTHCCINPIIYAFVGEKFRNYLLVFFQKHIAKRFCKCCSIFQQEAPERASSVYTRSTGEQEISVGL

B1: RANTES, P13501 24-91 (ligand, human, UniProt P13501 24-91, looked up)
chain: SPYSSDTTPCCFAYIARPLPRAHIKEYFYTSGKCSNPAVVFVTRKNRQVCANPEKKWVREYINSLEMS
As a reminder, the IC50 is the concentration that inhibits the measured activity by half. A low value points to greater potency in that assay. In turn, B1 had a 50% inhibitory concentration (IC50) of 1.7 nM.
